{
  "source": "patent US12383572B2",
  "about": "“Administration of an anti-activin-a compound to a subject” (AMGEN INC., priority 2013, dated 2025)",
  "molecules": {"B1": {"name": "sActRIIB: extracellular domain of human activin type-2B receptor fused to IgG2 Fc; full length SEQ ID NO: 21 (Table 9) (protein, listed as Homo sapiens)", "chain": "ETRWCIYYNANWELERTNQSGLERCEGEQDKRLHCYASWRNSSGTIELVKKGCWLDDFNCYDRQECVATEENPQVYFCCCEGNFCNERFTHLPEAGGPEVTYEPPPTAPTGGGGSVECPPCPAPPVAGPSVFLFPPKPKDTLMISRTPEVTCVVVDVSHEDPEVQFNWYVDGVEVHNAKTKPREEQFNSTFRVVSVLTVVHQDWLNGKEYKCKVSNKGLPAPIEKTISKTKGQPREPQVYTLPPSREEMTKNQVSLTCLVKGFYPSDIAVEWESNGQPENNYKTTPPMLDSDGSFFLYSKLTVDKSRWQQGNVFSCSVMHEALHNHYTQKSLSLSPGK"}},
  "key": {"VEGF and Ang-1": {"system": "VEGF and Ang-1", "test": "VEGF and Ang-1 immunostaining of inh-KO ovarian and testicular tumor sections", "type": "in vivo, mouse", "conditions": "ovarian and testicular tumors, inh-KO mice", "description": "Zinc-formalin fixed paraffin tumor tissue sections of 4 μm in thickness were prepared. The sections were subjected to antigen retrieval by microwave 3 min in Unmask solution (Vector H-3300) followed by incubation in 10 μg/ml Proteinase-K for 20 min and in 1% H2O2 in dH2O for 10 min at room temperature. The sections were further incubated in 0.1% Tween-20 in PBS for 3 min to permeabilize the cell membrane and in goat serum for 30 min to block non-specific binding. The sections were then incubated at room temperature with specific primary antibody for 3 hours followed by incubation in biotinylated or fluorescently labeled secondary antibody. Substrate developed in Vector SG kit (SK-4700) or DAB and nuclear-counterstained in Vector Fast Red (H-3403) or in hematoxylin. The immunostained tissue sections were analyzed and photographed using a Nikon Eclipse 90i microscope equipped with DS-Ril camera. The primary antibodies used and their dilutions are as follows: VEGF (BD Pharmingen 550549) 1:20 or VEGF (Abcam ab46154) 1:100, active caspase-3 (Abcam ab32042) 1:50, Ang-1 (Abcam ab8451) 1:500, osteopontin (Abcam ab8448) 1:200, CD-31 (Abcam ab56299) 1:100, E-cadherin (Abcam ab76319) 1:80. For immunofluorescence staining, FITC-conjugated secondary antibody (Invitrogen) was added at 1:50 dilution in PBS and incubated for 30 min. Cell nuclei were counterstained with Vectashield PE (Vector)."}, "TOV-21G xenografts": {"system": "TOV-21G xenografts", "test": "TOV-21G xenograft in abdominal flank, hu-sActRIIB-Fc alone or with 5-FU: tumor growth", "type": "in vivo, human", "conditions": "52 days after tumor cell injection, versus vehicle-treated tumor-bearing group", "description": "In another experiment, athymic nude mice received TOV-21G xenografts in the abdominal flank. After 14 days, subcutaneous hu-sActRIIB-Fc was administered weekly alone or in combination with 5-FU."}, "[1]": {"system": "ovarian and testicular tumors", "test": "Light microscopy (H & E) of inh-KO ovaries and testes", "type": "in vivo, mouse", "from_the_text": "Testes and ovaries from inh-KO mice were fixed with Zinc-formalin. Tissue sections were subjected to H & E staining and then examined with a Nikon Eclipse 90i microscope."}, "[2]": {"system": "endoglin, osteopontin, IGFBP-1, and IGFPB-2", "test": "Western blot of endoglin, osteopontin, IGFBP-1, IGFBP-2 in inh-KO ovarian tumors", "type": "in vivo, mouse", "conditions": "inh-KO mice", "description": "Protein extracts were prepared from cell cultures or tissues in T-PER tissue protein extraction reagent (Pierce) containing a mixture of protease inhibitors (Roche). A pool of 50 μg total protein for each group containing equal amounts of protein extract isolated from individual animals was separated by NuPAGE 4-12% Bis-Tris gel (Invitrogen) and transferred to PVDF. The membranes were probed with primary antibodies against total Smad2, p-Smad2 or E-cadherin (1:1000; Cell Signaling), endoglin, osteopontin (1:500; R & D Systems), IGFBP-1, IGFBP-2 (1:500; Abcam) followed by HRP-conjugated secondary antibody (1:2000; Cell Signaling). The membranes were stripped and re-probed with antibody against α-tubulin (1:1000; Cell Signaling)."}, "VEGF": {"system": "VEGF", "test": "Serum VEGF immunoassay in inh-KO mice", "type": "in vivo, mouse", "conditions": "inh-KO mice with advanced tumors, single dose", "description": "The serum VEGF levels in inh-KO mice were measured by using immunoassay kit (R & D Systems), and the levels of human VEGF and Ang-1 in cell line culture medium were quantified using ELISA kits purchased from Invitrogen (VEGF) and R & D Systems (Ang-1), by following the manufacturers' recommended protocols."}, "Ang-2 mRNA": {"system": "Ang-2 mRNA", "test": "Northern blot of Ang-2 mRNA in inh-KO tumors", "type": "in vivo, mouse", "conditions": "ovarian and testicular tumors, inh-KO mice", "description": "Total RNA was isolated from individual tissue samples after homogenization in Trizol (Invitrogen). A pool of 10 μg RNA for each group containing equal amounts of total RNA isolated from individual animals was subjected to Northern blot analysis. The northern probes used for βA and Ang-2 were generated by using RT-PCR (Phusion, Biolabs). βA primer set: 5′-CCCTTGCTTTGGCTGAGAGGA-3′ (SEQ ID NO: 294) and 5′-TC ACA GGT CGT CGT AGG TCG-3′ (SEQ ID NO: 295); Ang-2 primer set: 5′-TGT GCC GGG GAG AAG AG (SEQ ID NO: 296) and 5′-TACAGTAGTGGGTTGAGGTTC-3′ (SEQ ID NO: 297). To normalize the expression, northern blot membranes were re-probed with β-actin."}, "[3]": {"system": "ovarian tumors in inh-KO mice", "test": "Ovarian tumor mass by necropsy in female inh-KO mice", "type": "in vivo, mouse", "conditions": "12-week-old female inh-KO mice, single injection 30 mg/kg SC, necropsy 14 days after", "description": "Inh-KO mice. 12-week-old female and 8-week-old male inh-KO mice with fully established ovarian or testicular tumors received a single injection of PBS or sActRIIB (30 mg/kg, SC). As a control, age-matched wild-type littermates received a single injection of PBS. Ovarian and testicular organ weights were determined by necropsy 14 days after the injection."}, "[4]": {"system": "ovarian tumors in Inhα KO mice", "test": "sActRIIB single dose, withdrawal and re-administration in female Inhα KO mice: ovarian tumor weight", "type": "in vivo, mouse", "description": "Eleven-to-fourteen-week-old female Inhα KO mice with body weight from 19.41 to 26.82 grams were subcutaneously (SC) injected with either 30 mg/kg sActRIIB or PBS. Age-matched WT littermate control mice were injected with PBS and served as baseline controls. The study ended by necropsy 2 weeks after injections. Two cohorts of mice were used in the study. Eleven-to-thirteen-week-old female Inhα KO mice with body weight from 17.7 to 27.4 grams were SC injected with either 30 mg/kg sAcLRIIB or PBS. Age-matched WT littermate control mice were injected with PBS and served as baseline controls. The withdrawal lasted for 8 weeks. At the end of the withdrawal, the sActRIIB treated mice were divided by balanced body weight into 2 groups (Group 3 and Group 4).\nGroup 2 and Group 3 were euthanized to examine the ovarian tumors. Group 4 received another dose of 30 mg/kg sActRIIB and the mice were euthanized together with the WT mice 4 weeks later (total 12 weeks). Mouse body weights were recorded once per week up to 12 weeks. For necropsy, mice were euthanized in a CO2 chamber. Normal ovaries in WT mice and ovarian tumors in Inhα KO mice were collected and weighed. All results were expressed as the mean±standard error of the mean (SEM). Statistical significance of difference between groups was analyzed using Student's 2-tailed t-test on MS Excel 5.0 software. The Chi-Square test (GraphPad Software Inc, San Diego, CA) was used to examine the differences in animal survival time. Statistical significance between groups is represented by p<0.05 values."}},
  "note": "“Also recorded” adds a separate entry of the source.",
  "data": [
    {"molecule": "B1", "values": [
      {"measurement": "VEGF and Ang-1 immunoreactivities in tumor sections", "setting": "VEGF and Ang-1", "result": "completely abolished the VEGF and Ang-1 inductions in the tumors"},
      {"measurement": "tumor growth reduction", "setting": "TOV-21G xenografts", "result": 43, "unit": "%"},
      {"measurement": "ovarian morphology by light microscopy", "setting": "[1]; female inh-KO mice", "result": "the ovaries were normal in size and contained many recognizable follicles, minimal tumor cell invasion and few hemorrhagic lesions"},
      {"measurement": "testicular morphology by light microscopy", "setting": "[1]; male inh-KO mice", "result": "the testes were normal in size and filled with seminiferous tubules, although the number of spermatogonia was less than normal and a few small areas still contained tumor cells"},
      {"measurement": "induction of endoglin, osteopontin, IGFBP-1 and IGFBP-2 proteins", "setting": "[2]", "result": "abolished completely"},
      {"measurement": "serum VEGF", "setting": "VEGF", "result": "rapidly lowered the elevated VEGF to WT control levels"},
      {"measurement": "Ang-2 mRNA expression in tumors", "setting": "Ang-2 mRNA", "result": "inhibited its overexpression"},
      {"measurement": "ovarian tumor mass", "setting": "[3]", "result": "regressed rapidly to the sizes seen in the WT control mice"},
      {"measurement": "ovarian tumor weight at 8 weeks after withdrawal from the initial single dose", "setting": "[4]; 30 mg/kg SC", "result": "grown in size similar to that of the PBS-treated Inhα KO mice"},
      {"measurement": "ovarian tumor weight two weeks after a single dose", "setting": "[4]; 30 mg/kg SC", "result": "reduced to the WT control level"},
      {"measurement": "ovarian tumor mass at week 12 (4 weeks after re-administration)", "setting": "[4]; re-administration 30 mg/kg at week 8, 30 mg/kg", "result": "effectively reduced the tumor mass; also recorded: effectively regressed the ovarian tumor mass to the size of the WT control group"}
    ]}
  ]
}
